Measurements: US20240317834A1, “COMPOSITIONS AND METHODS FOR NEUROLOGICAL DISEASES” (CODA BIOTHERAPEUTICS, INC., priority 2020, published 2024)

Tests used:
Lenti-X 293T cells = assay: YFP fluorescence quenching anion reporter plate reader assay of engineered receptors stimulated with acetylcholine or a non-native ligand; assay type: cell-based
How it was run: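 YFP quench was followed for about 1 min 43 s after ligand delivered in iodide-based ECS, pH 7.2. Values are end-of-read fluorescence (last 10 s) divided by the pre-ligand baseline (15 s). Cells were LX293T, transfected with receptor DNA a day before the assay.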

rat DRG neurons = assay: Rheobase shift and evoked action potentials in rat DRG neurons (current clamp); assay type: cell-based
Method: Using whole cell manual patch clamp electrophysiology in HEK293 cells, rat DRG neurons and rat hippocampal neurons, the EC50 of the various engineered receptors disclosed herein to Ach and non-native ligands was measured using the Hill equation with peak current measurements from escalating doses of ligand. The rheobase shift was also measured in rat DRG neurons, which reflects the efficacy of the receptors. To calculate the rheobase, first, the amount of current that can produce an action potential was determined. Then the ligand was added, followed by a step wise increase in the current injected up to 700 pA.
For manual patch clamp experiments, Cells plated on coverslips were visualized at 10× and 40× on an inverted fluorescence microscope (Olympus). Recordings were made with an Axopatch 200B amplifier and Digidata 1550B (Molecular Devices) at RT using 3-6 MOhm glass patch electrodes (Sutter, BF150-86-10). Unless otherwise stated, recordings were made in extracellular solution (ECS) containing: 140 mM sodium chloride, 4 mM potassium chloride, 1 mM magnesium chloride, 2 mM calcium chloride, 10 mM HEPES, and 10 mM D-(+)-glucose (pH=7.3 with sodium hydroxide, osmolarity=305−315 mOsm). An 8-line reservoir (AutoMate Scientific) in combination with an 8-channel zero-dead-volume perfusion pencil (AutoMate Scientific) was used for perfusion. Data was acquired using pClamp software (Molecular Devices). Traces were either analyzed in Clampfit (Molecular Devices) or using custom Python code. Plotting and statistics were performed in GraphPad Prism.
DRG rheobase experiments were performed in current clamp mode using a potassium-based internal solution containing: 100 mM potassium D-gluconate, 28 mM potassium chloride, 1 mM magnesium chloride hexahydrate, 5 mM magnesium ATP, 10 mM HEPES, and 0.5 mM EGTA (pH=7.2 with potassium hydroxide, osmolarity=290-295 mOsm, calculated liquid junction potential=−13.5 mV). To measure DRG input resistance and rheobase, 500 ms current steps (−200 pA to 700 pA) were applied the membrane in the presence and absence of a compound. No holding current was applied to the membrane for cells included in the final datasets. Data were acquired at 10 kHz, with Bessel filter at 2 kHz and series resistance compensation at 100%. Rheobase was defined as the smallest depolarizing current injection required to cause an action potential to fire in the cell. In a subset of cells, the rheobase was ambiguous, since the action potential appeared to be graded in amplitude. In these cases, a […] of the trace clarified the rheobase. Input resistance was measured from the negative current injections, calculated as the difference in membrane potential at steady state divided by the current injection amplitude and then averaged across the four negative current steps for each recording. Resting membrane potential was measured from the first 100 ms of each sweep, averaged for each recording, and corrected for liquid junction potential. One-way ANOVA with multiple comparisons was used to test for significance of difference in rheobase and input resistance between baseline, drug, and wash conditions.

B1: CODA1039: engineered chimeric LGIC receptor, Y115E, Y210W in SEQ ID NO: 33 (protein)
chain: MRCSPGGVWLALAASLLHVSLQGEFQRKLYKELVKNYNPLERPVANDSQPLTVYFSLSLLQIMDVDEKNQVLTTNIWLQMSWTDHYLQWNVSEYPGVKTVRFPDGQIWKPDILLENSADERFDATFHTNVLVNSSGHCQYLPPGIFKSSCPMDLKNFPMDVQTCKLKFGSWSYGGWSLDLQMQEADISGYIPNGEWDLVGIPGKRSERFWECCKEPYPDVTFTVTMRRRMGYYLIQMYIPSLLIVILSWISFWINMDAAPARVGLGITTVLTMTTQSSGSRASLPKVSYVKAIDIWMAVCLLFVFSALLEYAAVNFVSRQHKELLRFRRKRRHHKSPMLNLFQEDEAGEGRFNFSAYGMGPACLQAKDGISVKGANNSNTTNPPPAPSKSPEEMRKLFIQRAKKIDKISRIGFPMAFLIFNMFYWIIYKIVRREDVHNQ
modifications: synthetic sequence of chimeric LGIC
YFP fluorescence quenching using CNL001 (Lenti-X 293T cells; 1 nM CNL001, first column): −1.12%
YFP fluorescence quenching using CNL001 (Lenti-X 293T cells; 1 nM CNL001, second column): −3.941%
YFP fluorescence quenching using TC-5619/Bradanicline (Lenti-X 293T cells; 1 nM brd): −5.55%
YFP fluorescence quenching using TC-5619/Bradanicline (Lenti-X 293T cells; 3 nM brd): 6.78%
YFP fluorescence quenching using Varenicline (Lenti-X 293T cells; 3 nM var, first column): −10.926
YFP fluorescence quenching using Varenicline (Lenti-X 293T cells; 3 nM var, second column): −7.395
YFP fluorescence quenching using CNL001 (Lenti-X 293T cells; 10 nM CNL001, first column): 6.275%
YFP fluorescence quenching using CNL001 (Lenti-X 293T cells; 10 nM CNL001, second column): 11.943%
YFP fluorescence quenching using TC-5619/Bradanicline (Lenti-X 293T cells; 10 nM brd): −2.7%
YFP fluorescence quenching using TC-5619/Bradanicline (Lenti-X 293T cells; 30 nM brd): 34.43%
YFP fluorescence quenching using Facinicline (Lenti-X 293T cells; 30 nM fac): −13.46
YFP fluorescence quenching using Varenicline (Lenti-X 293T cells; 30 nM var, first column): −5.661
YFP fluorescence quenching using Varenicline (Lenti-X 293T cells; 30 nM var, second column): −1.244
YFP fluorescence quenching using CNL001 (Lenti-X 293T cells; 50 nM CNL001, first column): 12.949%
YFP fluorescence quenching using CNL001 (Lenti-X 293T cells; 50 nM CNL001, second column): 18.635%
YFP fluorescence quenching using ABT-126 (Lenti-X 293T cells; 50 nM abt): −17.32%
YFP fluorescence quenching using CNL001 (Lenti-X 293T cells; 100 nM CNL001, first column): 17.576%
YFP fluorescence quenching using CNL001 (Lenti-X 293T cells; 100 nM CNL001, second column): 18.319%
YFP fluorescence quenching using CNL002 (Lenti-X 293T cells; 100 nM CNL002): 21.85%
YFP fluorescence quenching using ABT-126 (Lenti-X 293T cells; 100 nM abt): −13.93%
YFP fluorescence quenching using AZD-0328 (Lenti-X 293T cells; 100 nM azd0328): −10.45%
YFP fluorescence quenching using ABT-126 (Lenti-X 293T cells; 300 nM abt): 9.9%
YFP fluorescence quenching using AZD-0328 (Lenti-X 293T cells; 300 nM azd0328): −13%
YFP fluorescence quenching using TC-5619/Bradanicline (Lenti-X 293T cells; 300 nM brd): 70.05%
YFP fluorescence quenching using Facinicline (Lenti-X 293T cells; 300 nM fac): 5.43
YFP fluorescence quenching using Varenicline (Lenti-X 293T cells; 300 nM var, first column): −4.555
YFP fluorescence quenching using Varenicline (Lenti-X 293T cells; 300 nM var, second column): 1.081
YFP fluorescence quenching using ABT-126 (Lenti-X 293T cells; 500 nM abt): 36.97%
YFP fluorescence quenching using Varenicline (Lenti-X 293T cells; 500 nM var, first column): 9.172
YFP fluorescence quenching using Varenicline (Lenti-X 293T cells; 500 nM var, second column): 12.561
YFP fluorescence quenching using CNL001 (Lenti-X 293T cells; 1 uM CNL001, first column): 19.329%
YFP fluorescence quenching using CNL001 (Lenti-X 293T cells; 1 uM CNL001, second column): 20.672%
YFP fluorescence quenching using CNL002 (Lenti-X 293T cells; 1 uM CNL002): 47.37%
YFP fluorescence quenching using ABT-126 (Lenti-X 293T cells; 1 uM abt): 48.37%
YFP fluorescence quenching using TC-6987 (Lenti-X 293T cells; 1 uM tc6987): 7.26
YFP fluorescence quenching using Varenicline (Lenti-X 293T cells; 1 uM var, first column): 7.139
YFP fluorescence quenching using Varenicline (Lenti-X 293T cells; 1 uM var, second column): 12.664
YFP fluorescence quenching using ABT-126 (Lenti-X 293T cells; 3 uM abt): 50.5%
YFP fluorescence quenching using ABT-126 (Lenti-X 293T cells; 10 uM abt): 58.13%
YFP fluorescence quenching using TC-6987 (Lenti-X 293T cells; 10 uM tc6987): 11
YFP fluorescence quenching using CNL002 (Lenti-X 293T cells; 30 uM CNL002): 59.97%
YFP fluorescence quenching using ABT-126 (Lenti-X 293T cells; 30 uM abt): 64.1%
YFP fluorescence quenching using AZD-0328 (Lenti-X 293T cells; 30 uM azd0328): 30.76%
YFP fluorescence quenching using Facinicline (Lenti-X 293T cells; 30 uM fac): 49.06
YFP fluorescence quenching using ABT-126 (Lenti-X 293T cells; 50 uM abt): 66.67%
YFP fluorescence quenching using ABT-126 (Lenti-X 293T cells; 100 uM abt): 68.63%
YFP fluorescence quenching using TC-6987 (Lenti-X 293T cells; 500 uM tc6987): 7.97
percent quench of YFP fluorescence, 30 nM TC-6683 (Lenti-X 293T cells; TC-6683 30 nM): −1.608%
percent quench of YFP fluorescence, 300 nM TC-6683 (Lenti-X 293T cells; TC-6683 300 nM): −3.491%
percent quench of YFP fluorescence, 3 uM TC-6683 (Lenti-X 293T cells; TC-6683 3 uM): −6.153%
percent quench of YFP fluorescence, 30 uM TC-6683 (Lenti-X 293T cells; TC-6683 30 uM): −9.263%
percent quench of YFP fluorescence, 100 uM TC-6683 (Lenti-X 293T cells; TC-6683 100 uM): −9.19%
percent quench of YFP fluorescence, 10 uM ach (Lenti-X 293T cells; acetylcholine 10 uM): −2.97%
percent quench of YFP fluorescence, 50 uM ach (Lenti-X 293T cells; acetylcholine 50 uM): −3.94%
percent quench of YFP fluorescence, 100 uM ach (Lenti-X 293T cells; acetylcholine 100 uM): 0.35%
percent quench of YFP fluorescence, 300 uM ach (Lenti-X 293T cells; acetylcholine 300 uM): −4.13%
percent quench of YFP fluorescence, 500 uM ach (Lenti-X 293T cells; acetylcholine 500 uM): −5.18%
percent quench of YFP fluorescence, 1 mM ach (Lenti-X 293T cells; acetylcholine 1 mM): 1.21%
percent quench of YFP fluorescence, 3 mM ach (Lenti-X 293T cells; acetylcholine 3 mM): 26.69%
Rheobase Shift; Rat DRG Neurons, +TC-5619 @ EC90 (rat DRG neurons; +TC-5619 @ EC90): 453 ± 58 pA
Rheobase Shift; Rat DRG Neurons, Baseline (rat DRG neurons; Baseline, no ligand): 88 ± 9 pA
